# Measurements from the supplement of paper PMC7877785.
# ± gives the uncertainty stated by the source.
# Test: self-splicing fitness, log relative to wild type (ln ratio); higher = more splicing; Tetrahymena group I intron in knt gene, E. coli kanamycin selection, DiMSum; sequences stand for … in CUCUCU…GGAGGGAAAAGUUAUCAGGCAUGCACCUGGUAGCUAGUCUUUAAACCAAUAGAUUGCAUCGGUUUAAAAGGCAAGACCGUCAAAUUGCGGGAAAGGGGUCAACAGCCGUUCAGUACCAAGUCUCAGGGGAAACUUUGAGAUGGCCUUGCAAAGGGUAUGGUAAUAAGCUGACGGACAUGGUCCUAACCACGCAGCCAAGUCCUAAGUCAACAGAUCUUCUGUUGAUAUGGAUGCAGUUCACAGACUAAAUGUCGGUCGGGGAAGAUGUAUUCUUCUCAUAAGAUAUAGUCGGACCUCUCCUUAAUGGGAGCUAGCGGAUGAAGUGAUGCAACACUGGAGCCGCUGGGAACUAAUUUGUAUGCGAAAGUAUAUUGAUUAGUUUUGGAGUACUCGUGGUCG
# In short: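 The eight P1ex-region nucleotides of an intron in the knt kanamycin-resistance gene on pET-22b(+) were all randomised and the library put into E. coli BL21(DE3). Six replicate transformations were grown overnight at 37°C or 30°C on LB agar with or without 25 μg/mL kanamycin, together with 100 μg/mL carbenicillin, 50 μM IPTG and 0.2% rhamnose. Colonies were pooled and amplicon-sequenced on an Illumina HiSeq 2500. Fitness from DiMSum is the error-weighted combination of wild-type-normalised replicate fold changes, kanamycin over none.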
Sequence,self-splicing fitness (ln) (30 °C),self-splicing fitness (ln) (37 °C)
UACCAGCAAUAUUACGAUGC,-3.19 ± 0.16,-3.07 ± 0.25
UACCAGCAAUAUUACGAUGU,-1.9 ± 0.091,-1.41 ± 0.11
UACCAGCAAUAUUACGCAAU,-2.29 ± 0.091,-0.841 ± 0.076
UACCAGCAAUAUUACGCAUA,-0.736 ± 0.072,0.0861 ± 0.083
UACCAGCAAUAUUACGCAUG,-1.22 ± 0.062,-1.09 ± 0.078
UACCAGCAAUAUUACGCCGA,-1.45 ± 0.16,-0.513 ± 0.17
UACCAGCAAUAUUACGCGAG,-0.774 ± 0.049,-0.168 ± 0.061
UACCAGCAAUAUUACGCUCC,-1.12 ± 0.18,-0.501 ± 0.2
UACCAGCAAUAUUACGGCCG,0.00307 ± 0.099,-0.366 ± 0.12
UACCAGCAAUAUUACGGGCU,-2.89 ± 0.14,-1.96 ± 0.19
UACCAGCAAUAUUACGUAAU,-2.56 ± 0.097,-1.06 ± 0.096
UACCAGCAAUAUUACGUGAA,-1.06 ± 0.053,-0.463 ± 0.076
UACCAGCAAUAUUACGUUCU,-2.28 ± 0.096,-1.86 ± 0.11
UACGAGCAAUAUUACGAAAA,-3.03 ± 0.44,-2.28 ± 0.39
UACGAGCAAUAUUACGAAAU,,-1.69 ± 0.25
UACGAGCAAUAUUACGACAC,-3.07 ± 0.19,-3.28 ± 0.25
UACGAGCAAUAUUACGACCA,-1.71 ± 0.42,
UACGAGCAAUAUUACGACGG,-2.13 ± 0.15,0.000849 ± 0.18
UACGAGCAAUAUUACGAGGC,-4.33 ± 0.39,-2.51 ± 0.25
UACGAGCAAUAUUACGAUCA,-1.89 ± 0.15,-0.737 ± 0.13
UACGAGCAAUAUUACGAUGU,-3.35 ± 0.32,-2.46 ± 0.34
UACGAGCAAUAUUACGAUUU,-2.88 ± 0.17,-1.3 ± 0.16
UACGAGCAAUAUUACGCAGU,-3.15 ± 0.26,-2.95 ± 0.33
UACGAGCAAUAUUACGCCAC,,-2.29 ± 0.42
UACGAGCAAUAUUACGCGCG,-1.35 ± 0.13,-1.14 ± 0.18

Sequence,self-splicing fitness (ln) (30 °C),self-splicing fitness (ln) (37 °C)
UACGAGCAAUAUUACGGAAC,-4.04 ± 0.42,-3.02 ± 0.35
UACGAGCAAUAUUACGGAGC,-2.66 ± 0.3,-2.8 ± 0.32
UACGAGCAAUAUUACGGCAU,-3.45 ± 0.23,-1.25 ± 0.15
UACGAGCAAUAUUACGGCUC,,0.0878 ± 0.5
UACGAGCAAUAUUACGGCUG,-0.628 ± 0.077,-0.0702 ± 0.1
UACGAGCAAUAUUACGGUCC,-3.61 ± 0.43,
UACGAGCAAUAUUACGGUGA,-3.12 ± 0.18,-1.21 ± 0.13
UACGAGCAAUAUUACGUACU,-3.32 ± 0.32,-1.76 ± 0.22
UACGAGCAAUAUUACGUAUU,-3.45 ± 0.25,-2.47 ± 0.41
UACGAGCAAUAUUACGUCAC,-2.59 ± 0.25,-2.09 ± 0.32
UACGAGCAAUAUUACGUGAU,-4.17 ± 0.21,-2.45 ± 0.2
UACGAGCAAUAUUACGUGUG,-2.43 ± 0.15,-1.82 ± 0.12
UACGAGCAAUAUUACGUUCU,-2.38 ± 0.14,-2.35 ± 0.16
UACGAGCAAUAUUACGUUGC,-3.28 ± 0.32,-2.18 ± 0.33
UACUAGCAAUAUUACGAAAG,-2.94 ± 0.11,-1.93 ± 0.13
UACUAGCAAUAUUACGAAGG,-3.46 ± 0.29,-1.04 ± 0.34
UACUAGCAAUAUUACGAAUG,-0.956 ± 0.083,0.689 ± 0.12
UACUAGCAAUAUUACGACCC,,-0.364 ± 0.39
UACUAGCAAUAUUACGACUG,-0.572 ± 0.095,0.113 ± 0.13
UACUAGCAAUAUUACGAGCG,-0.191 ± 0.088,0.655 ± 0.11
UACUAGCAAUAUUACGAGCU,-2.4 ± 0.24,
UACUAGCAAUAUUACGAUAA,-1.05 ± 0.085,-0.513 ± 0.093
UACUAGCAAUAUUACGCAAA,-2.94 ± 0.31,-0.966 ± 0.2
UACUAGCAAUAUUACGCAGC,-2.49 ± 0.39,-2.08 ± 0.39
UACUAGCAAUAUUACGCAGG,-1.77 ± 0.14,-1.49 ± 0.15

Sequence,self-splicing fitness (ln) (30 °C),self-splicing fitness (ln) (37 °C)
UACUAGCAAUAUUACGCAUG,-1.72 ± 0.099,-0.591 ± 0.12
UACUAGCAAUAUUACGCCCG,0.342 ± 0.24,-1.04 ± 0.2
UACUAGCAAUAUUACGCGGG,-3.19 ± 0.22,-1.75 ± 0.2
UACUAGCAAUAUUACGCUCA,-0.532 ± 0.095,0.288 ± 0.13
UACUAGCAAUAUUACGCUCG,-0.908 ± 0.13,0.0226 ± 0.15
UACUAGCAAUAUUACGGCAC,-2.77 ± 0.19,-1.73 ± 0.2
UACUAGCAAUAUUACGGCCC,-1.47 ± 0.16,-2.36 ± 0.28
UACUAGCAAUAUUACGGCUU,-1.2 ± 0.096,0.146 ± 0.12
UACUAGCAAUAUUACGGUAA,-2.33 ± 0.14,-1.01 ± 0.12
UACUAGCAAUAUUACGGUUG,-2.18 ± 0.081,-1.06 ± 0.11
UACUAGCAAUAUUACGUAAG,-4.32 ± 0.31,-3.07 ± 0.3
UACUAGCAAUAUUACGUACG,-2.76 ± 0.1,-1.31 ± 0.091
UACUAGCAAUAUUACGUUGA,-3.37 ± 0.17,-0.894 ± 0.12
UAGAAGCAAUAUUACGAAAG,-1.97 ± 0.21,-1.26 ± 0.18
UAGAAGCAAUAUUACGAACA,-0.322 ± 0.16,-0.859 ± 0.17
UAGAAGCAAUAUUACGACUC,-0.192 ± 0.12,-0.013 ± 0.16
UAGAAGCAAUAUUACGAGUA,-1.31 ± 0.096,-0.33 ± 0.12
UAGAAGCAAUAUUACGCUGU,-3.73 ± 0.26,-0.977 ± 0.15
UAGAAGCAAUAUUACGGAGU,-3.56 ± 0.15,-2.1 ± 0.13
UAGAAGCAAUAUUACGGAUA,-1.18 ± 0.1,-0.43 ± 0.11
UAGAAGCAAUAUUACGGCCG,0.101 ± 0.083,-0.0885 ± 0.11
UAGAAGCAAUAUUACGGGAC,-3.1 ± 0.36,-3.21 ± 0.47
UAGAAGCAAUAUUACGGUAG,-1.88 ± 0.13,-0.213 ± 0.13
UAGAAGCAAUAUUACGGUGC,,-1.46 ± 0.48
UAGAAGCAAUAUUACGUAUA,-1.58 ± 0.16,-0.471 ± 0.15

Sequence,self-splicing fitness (ln) (30 °C),self-splicing fitness (ln) (37 °C)
UAGAAGCAAUAUUACGUCCU,-0.903 ± 0.12,-0.0829 ± 0.17
UAGAAGCAAUAUUACGUGGU,-3.52 ± 0.2,-2.54 ± 0.18
UAGAAGCAAUAUUACGUUGA,-2.99 ± 0.23,-1.62 ± 0.18
UAGAAGCAAUAUUACGUUUG,-2.32 ± 0.1,-0.879 ± 0.12
UAGCAGCAAUAUUACGAAUA,-0.737 ± 0.1,-0.606 ± 0.11
UAGCAGCAAUAUUACGAGUC,-4.81 ± 0.34,-2.22 ± 0.22
UAGCAGCAAUAUUACGAUGC,,-1.66 ± 0.49
UAGCAGCAAUAUUACGAUGG,-1.6 ± 0.063,-0.933 ± 0.073
UAGCAGCAAUAUUACGAUGU,-3.82 ± 0.21,-2.5 ± 0.2
UAGCAGCAAUAUUACGCACA,-0.126 ± 0.072,0.0233 ± 0.11
UAGCAGCAAUAUUACGCAUA,-1.09 ± 0.07,-0.101 ± 0.079
UAGCAGCAAUAUUACGCGAA,-1.54 ± 0.091,-1.24 ± 0.12
UAGCAGCAAUAUUACGCGAC,-3.54 ± 0.21,-1.67 ± 0.21
UAGCAGCAAUAUUACGCGCC,-1.77 ± 0.12,-1.16 ± 0.19
UAGCAGCAAUAUUACGCUCA,-0.152 ± 0.095,0.307 ± 0.1
UAGCAGCAAUAUUACGGAAC,-4.05 ± 0.27,-3.08 ± 0.31
UAGCAGCAAUAUUACGGAAG,-3.04 ± 0.16,-1.14 ± 0.15
UAGCAGCAAUAUUACGGAGC,-2.95 ± 0.44,-1.74 ± 0.49
UAGCAGCAAUAUUACGGCAG,-0.659 ± 0.1,0.546 ± 0.13
UAGCAGCAAUAUUACGGCUU,-1.1 ± 0.11,0.255 ± 0.15
UAGCAGCAAUAUUACGGUAA,-1.32 ± 0.09,-1.13 ± 0.11
UAGCAGCAAUAUUACGGUCA,-0.671 ± 0.07,0.278 ± 0.085
UAGCAGCAAUAUUACGUAUU,-3.99 ± 0.26,-1.54 ± 0.19
